Test results: paper PMC8249414

Target: nucleosome core particle with 167 bp '601' DNA (167NCP)

- Km of nucleosome remodeling (enzyme 10-640 nM), against ALC1 (1-673): 2 fold
Substance: ALC1 (1-673) D381A mutant (from UniProt Q86WJ1 1-673) (domain or fragment)
